Assay results reported in patent US20080014583.

Key:
Flag-tagged TRB3 = test system: T1, Flag-tagged TRB3
T1 sequence: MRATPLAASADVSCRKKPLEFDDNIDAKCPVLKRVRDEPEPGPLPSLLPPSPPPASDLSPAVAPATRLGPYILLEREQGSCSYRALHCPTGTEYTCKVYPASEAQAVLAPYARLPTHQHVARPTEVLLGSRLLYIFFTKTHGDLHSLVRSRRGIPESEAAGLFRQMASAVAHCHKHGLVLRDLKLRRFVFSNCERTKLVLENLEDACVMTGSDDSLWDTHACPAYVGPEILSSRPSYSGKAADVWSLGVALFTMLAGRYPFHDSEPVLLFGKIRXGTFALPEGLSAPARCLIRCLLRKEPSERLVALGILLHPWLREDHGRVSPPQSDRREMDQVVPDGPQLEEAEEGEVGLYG

[1] = test system: T2, COP1-interaction-defective VPmt mutant Flag-TRB3
T2 sequence: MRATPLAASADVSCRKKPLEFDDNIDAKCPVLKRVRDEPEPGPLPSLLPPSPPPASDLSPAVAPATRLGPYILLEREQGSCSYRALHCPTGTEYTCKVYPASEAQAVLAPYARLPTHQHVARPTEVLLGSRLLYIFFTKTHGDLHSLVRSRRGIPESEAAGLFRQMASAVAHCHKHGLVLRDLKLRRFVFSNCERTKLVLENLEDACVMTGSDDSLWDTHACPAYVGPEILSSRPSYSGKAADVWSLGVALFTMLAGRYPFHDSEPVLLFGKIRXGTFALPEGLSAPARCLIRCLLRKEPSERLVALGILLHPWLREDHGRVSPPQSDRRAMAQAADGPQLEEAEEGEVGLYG

## HA-tagged COP1 (Constitutive Photomorphogenic Protein 1)
Flag-tagged TRB3
  degradation of TRB3 protein after removal of MG132: COP1+DET1 promoted degradation of wild-type but not VPmt TRB3 protein
  ubiquitination of TRB3, MS analysis: COP1 promotes ubiquitination of wild-type but not COP1-interaction defective (VPmt) TRB3 at 3 major sites
[1]
  degradation of TRB3 protein after removal of MG132: COP1+DET1 promoted degradation of wild-type but not VPmt TRB3 protein
  ubiquitination of TRB3, MS analysis: COP1 promotes ubiquitination of wild-type but not COP1-interaction defective (VPmt) TRB3 at 3 major sites
